Here are results for 1 molecule from patent US20080199473A1 (CLEVELAND CLINIC FOUNDATION, published 2008).

This assay has as its target T1, 35S-labelled luciferase (UniProt P08659 1-550 = luciferase, 35S label (in-vitro-translated)).
T1 construct: Negative control of the pull-down; also called luciferase (about 61 kDa)
Put plainly: GST pull-down, 35S-labelled luciferase.

T1 sequence (P08659 whole entry): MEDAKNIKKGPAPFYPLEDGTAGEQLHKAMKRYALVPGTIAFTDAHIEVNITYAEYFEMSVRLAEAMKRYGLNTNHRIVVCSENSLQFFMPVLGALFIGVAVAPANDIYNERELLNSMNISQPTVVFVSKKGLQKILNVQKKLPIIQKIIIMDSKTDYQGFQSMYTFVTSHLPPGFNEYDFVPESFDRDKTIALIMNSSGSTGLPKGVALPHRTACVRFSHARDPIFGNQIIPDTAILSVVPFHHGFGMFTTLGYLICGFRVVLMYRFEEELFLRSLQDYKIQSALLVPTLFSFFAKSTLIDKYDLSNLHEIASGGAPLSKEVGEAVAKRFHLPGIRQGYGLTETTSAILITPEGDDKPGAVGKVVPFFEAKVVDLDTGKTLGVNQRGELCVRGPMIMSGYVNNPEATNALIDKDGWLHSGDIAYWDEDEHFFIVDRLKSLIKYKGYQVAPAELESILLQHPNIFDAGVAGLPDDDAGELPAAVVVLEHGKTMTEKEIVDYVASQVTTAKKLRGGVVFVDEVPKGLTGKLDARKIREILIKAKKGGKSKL

B1: GST-TWEAK protein (ligand, UniProt O43508 136-249, looked up)
chain: ARINSSSPLRYNRQIGEFIVTRAGLYYLYCQVHFDEGKAVYLKLDLLVDGVLALRCLEEFSATAASSLGPQLRLCQVSGLLALRPGSSLRIRTLPWAHLKAAPFLTYFGLFQVH
notes: also called GST-TWEAK fusion protein; not shown: glutathione S-transferase (GST) tag
As for B1, the binding result is “no binding”.
